Assay results as given in the supplement of paper PMC9170038.

System: MS2 coat protein
Assay: apparent KD of MS2 coat protein; designed switch direction (-1 OFF switch, 1 ON switch): -1; higher = weaker reporter binding
Procedure, shortened: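 Three titration conditions were used: no input, 200 uM small-molecule ligand, and an oligonucleotide input. In each, SNAP-549-labelled MS2 coat protein was raised from 0.7 or 1.5 nM, doubling, to 3 µM over designed RNA switches transcribed on Illumina chips by stalled E. coli RNA polymerase. Curve fits of normalised cluster fluorescence gave values whose per-design median over clusters is the apparent KD.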

[1] = input ligand: microRNA oligo, concentration not stated
[2] = Eterna round: R95, input ligand: microRNA oligo, concentration not stated
[3] = Eterna round: R95, input ligand: FMN 200 uM
[4] = Eterna round: R95, input ligand: none

Row | Sequence | apparent KD of MS2 coat protein (input ligand: FMN 200 uM) [nM] | apparent KD of MS2 coat protein (input ligand: none) [nM] | apparent KD of MS2 coat protein [1] [nM] | apparent KD of MS2 coat protein [2] [nM] | apparent KD of MS2 coat protein [3] [nM] | apparent KD of MS2 coat protein [4] [nM]
1 | UCUUCACAUGAGGAUCACCCAUGUGAGGAUAUGGUUUCGCUGGCCGUAGCCAGUGGAACCAGAAGGCGCAUGAU [Mat - Exclusion 1 - JL Mod - D7] (Eterna round: R97, puzzle: Exclusion 1) | 21.5 | 26.1 | – | – | – | –
2 | GGAUUUACUGAGGAUAUUGCAUCACCCGAUUGAUAAGAAGGCAGAACAUGAGGAUCACCCAUGUGGGUAGUCAA [Bingo-Bango-2] (Eterna round: R97, puzzle: Exclusion 6) | 80.2 | 39.3 | – | – | – | –
3 | GUGCACGUAGGAUAUUAGAAGGAGAACAUGAGGAUCACCCAUGUUAUCCAUCACCUCCGCUAAGAAGGAUGGCCAC [EX5 C.6] (Eterna round: R97, puzzle: Exclusion 5) | 14.1 | 13 | – | – | – | –
4 | UAUAUAUAGUAAGGAUAUGUAUUUAUUUUAGAAACAGAAGGUACUGACAUGAGGAUCACCCAUGUUUUAGUGUGGGCAUGUAGA [JMF's solution 23] (Eterna round: R96, puzzle: Exclusion NG 1) | – | – | 62 | – | – | –
5 | AAUAACAGAGGAUAUACUGUUUUAUGUGUUUGUUGUUUUGAACAUGAGGAUCACCCAUGUAGAAGGCUGAUUGA [JMF 79] (puzzle: Exclusion 2) | – | – | – | 38.7 | – | –
6 | GAGUACUGAGGAUAUACAUGAGGAUCACCCAUGUGUUCCAACUAGGAAUCUAGAAUAUGUAGAAGGCAGUGCUG [salish99_ex3_r4_702] (Eterna round: R97, puzzle: Exclusion 3) | 71.3 | 123 | – | – | – | –
7 | UAUAAGCUAGGAUAUCGCUGAGUAAACAUGAGGAUCACCCAUGUGGACCAUGAUUGCCACCGAGAAGGAGCGGGAA [Aonat] (puzzle: Exclusion 5) | – | – | – | 53.7 | 119 | 56.8
8 | CCGCUAAGAGCAGGAUAUGAGUAACAUGAGGAUCACCCAUGUGGACCAUGAAACAGUCCACGCAGUCAGAAGGGUUACGUGGCA [Eternabot solution 33] (Eterna round: R96, puzzle: Exclusion NG 2) | 38.8 | 34.3 | 23.1 | – | – | –
9 | AGUACUUACUCGAUAGUGUUAGUACAAUAAGCUUGUGAAACAUGAGGAUCACCCAUGUCCUCAUAAGCUCGUCUUAU [salish99_TOv2_r3_1005] (puzzle: Sensor v3, turn-off variant 2) | – | – | – | 627 | 17.6 | 15.8
10 | AAUAACAGAGGAUAUACUAUUUUAUGUAUUUAUUAUUUUAAACAUGAGGAUCACCCAUGUAGAAGGCUGAGUAA [JMF 27] (puzzle: Exclusion 2) | – | – | – | 22.2 | – | –
11 | CCAUUCAGAGGAUAUGCGCAUAAAUAAGACUUUUUUUUUUAACAUGAGGAUCACCCAUGUAGAAGGCUGUAACC [Ex2 #46] (Eterna round: R97, puzzle: Exclusion 2) | 24.6 | 24.8 | – | – | – | –
12 | GCCAGAGGAGGAUAUCUAAUAUAUCACAUGAGGAUCACCCAUGUCCAGCGAAAGCUGGAGGGAGAAGGCCUCUGGC [Fiskers Ex 5 - 23] (puzzle: Exclusion 5) | – | – | – | 98.2 | 46 | 78.2
13 | UUUACAAGCUAAUGAUCCCACAUGAGGAUCACCCAUGUUGCUGCCGGUGACGGUAGCAUAACAUUUGCUCGUCUUAU [JL TOV1 3.58] (Eterna round: R97, puzzle: Sensor, turn-off variant 1) | 1180 | 1010 | – | – | – | –
14 | AGGGAUAAAGGAUAUACAUGAGGAUCACCCAUGUUGAGGAAAGUGAGAGGUGGCGAUAGUAGAAGGUUAGGUAG [JR_Exclu3_Sub082] (puzzle: Exclusion 3) | – | – | – | 78.8 | 86.8 | 137
15 | UGUUGUUACGCAGGAUAUGAGGAUCACCCAUAGUAGGAUAACGAAAGUGAAGGACUGAGGAUUACCCAGAAGGGCGGGUUAACA [pwkr exNG2 2xF5 2xFMN.3] (Eterna round: R96, puzzle: Exclusion NG 2) | 1010 | 154 | 101 | – | – | –
16 | GUACUGAGGCUUUGCUUUAAUCGUACAUGAGGAUCACCCAUGUAGGAUAUGGUAGGCUUUGCUUACCAGAAGGACAGAGUGAUC [JL EXNG3 1.23] (Eterna round: R96, puzzle: Exclusion NG 3) | 148 | 162 | 121 | – | – | –
17 | GAUCAACAUGAGGAUCACCCAUGUGAGGAUAUGAUACUAUGUACUUCGGUACAUAGUAUCAGAAGGCAUAUAAA [Ex1-3: 37] (puzzle: Exclusion 1) | – | – | – | 40.4 | – | –
18 | CUUCACCCACCAGAGCUCACCCACAAACCUGCCCUGGUGACAUGAGGAUCACCCAUGUUUUUUGCCCGUCUUAUCUU [Diletibi] (puzzle: Sensor v3, turn-off variant 2) | – | – | – | 241 | 42 | 46.8

Row | Sequence | apparent KD of MS2 coat protein (input ligand: FMN 200 uM) [nM] | apparent KD of MS2 coat protein (input ligand: none) [nM] | apparent KD of MS2 coat protein [1] [nM] | apparent KD of MS2 coat protein [2] [nM] | apparent KD of MS2 coat protein [3] [nM] | apparent KD of MS2 coat protein [4] [nM]
19 | AAUUAACUAGGAUAUACUUGAGGAUCACCCAAGUGGGCUCCACCUGCUUGGCUCCCAGGUAGAAGGAGUAUACA [Tioner] (Eterna round: R97, puzzle: Exclusion 3) | 213 | 538 | – | – | – | –
20 | AUAAAUUUAGAGGAUAUCUUAUAUGGGCGACCGAGAGAAGGCUGGACAUGAGGAUCACCCAUGUGCUUCGGUGA [Eternabot (L1) Solution 96] (Eterna round: R97, puzzle: Exclusion 6) | 67.5 | 75 | – | – | – | –
21 | AAUAAUAGCGAGGAUAUCGUAUCGGAAACGAUACGAGAAGGCGUAACAUGAGGAUCACCCAUGUUCCUCAAUAA [Fiskers Ex 6 - 3] (puzzle: Exclusion 6) | – | – | – | 39.7 | – | –
22 | CUAAUACAUCAGGAUAUCUAUGAUUAUAGCCAUAGAGAAGGGAUGACAUGAGGAUCACCCAUGUCAAAGGGUGA [eternacac ex6r4 sub21] (Eterna round: R97, puzzle: Exclusion 6) | 426 | 879 | – | – | – | –
23 | GUAAUACAUGAGGAUCACCCAUGUAAGGAUAUGCUAGCGGUCGGCUGACUGACUGCUAGCAGAAGGUACAUGAU [Mat - Mod of JL D77] (puzzle: Exclusion 1) | – | – | – | 87.2 | – | –
24 | CACCUGAAGAGAGGAUAUCAUACAUGAGGAUCACCCAUGUAAUAAAUGAGAAUUUCGAAUGUAAUUGAGAAGGCUCAAUAAGGC [Ostricism 95 - Jieux - Exclusion NG 2] (Eterna round: R96, puzzle: Exclusion NG 2) | 82.9 | 47.9 | 33 | – | – | –
25 | UAUCGGGACUGAGGAUAUUCGUUCGAGCACGAAGAAGAAGGUAGUGUCAGGGACAUGAGGAUCACCCAUGUGAUUUCAGUCCCA [JL ViennaUCT Erinle mod 6] (Eterna round: R96, puzzle: Exclusion NG 1) | 91.4 | 133 | 102 | – | – | –
26 | UAUUAACAAGUAAGAUCCAACAUGAGGAUCACCCAUGUGCUCGUCUUAUAAGGUACUGUGACGAAAGUCACGGUACC [Eli 87 v1] (Eterna round: R97, puzzle: Sensor, turn-off variant 1) | 21.2 | 21.8 | – | – | – | –
27 | GUCGCAAUGCAGGAUAUCCUGCUAUUCAAGGGAGGAGAAGGGCAGACAUGAGGAUCACCCAUGUGGUCCGUGCC [Eternabot (L1) Solution 3] (Eterna round: R97, puzzle: Exclusion 6) | 160 | 170 | – | – | – | –
28 | AUUUAACAUGAGGAUCACCCAUGUGAGGAUAUGCGAGUGUAGACUUCGGUCUGAUAGAGCAGAAGGCGCAGAUA [EX1 #9] (Eterna round: R97, puzzle: Exclusion 1) | 48.6 | 45 | – | – | – | –
29 | AUAAAUCAUGUAGGAUAUGCGUGGAGAAACUAUGCAGAAGGACAUGAGGAUCACCCAUGUGCUUCCGUCUGCGUACAGAUGGUA [Mat - Exclusion NG 1 - Mod of JL - D9] (Eterna round: R96, puzzle: Exclusion NG 1) | 134 | 27.3 | 20.1 | – | – | –
30 | GCCUUAUCUGUCAGGAUAUACAAUAAAAUAAUUAUGUAGAAGGGACAUGAGGAUCACCCAUGUACAUUACAUUG [alecazam25] (Eterna round: R97, puzzle: Brourd's mod of Exclusion 4) | 50 | 22 | – | – | – | –
31 | UAUAUAUAGUAAGGAUAUGUAUUUAUUUUAUAAACAGAAGGUACUGACAUGAGGAUCACCCAUGUUUUAGUGUGGGCAUGUAGA [JMF's solution 4] (Eterna round: R96, puzzle: Exclusion NG 1) | – | – | 67 | – | – | –
32 | CCAAGAAUAGGAUAUACACCAUGUCAGCUUAUAUACAACGAACAUGAGGAUCACCCAUGUAGAAGGGUUCUCUC [Exclusion-2-#1] (Eterna round: R97, puzzle: Exclusion 2) | 430 | 479 | – | – | – | –
33 | UCAAGCUUUAGGCGUGUGAACAUGAGGAUCACCCAUGUAUUUUUGGUUAGGAGUUCUGUAAGGGAUGCUCGUCUUAU [JR_SWV3TOV1_Sub092] (puzzle: Sensor v3, turn-off variant 1) | – | – | – | 54.8 | 57.5 | 75.8
34 | CCGUUAUGAGGAUAUCGCUUGAAAGACAUGAGGAUCACCCAUGUGGGCGCGUCCUCAUGGCGAGAAGGCAUUACGA [Enmaatama] (puzzle: Exclusion 5) | – | – | – | 13.1 | 9.07 | 12.6
35 | UACAUGAGGAUCACCCAUGUUUUGUCGUGUAUGGUAUUUAUCUAGGAUAUCAAUUUAGUAAUUUAUGAGAAGGAGAAUAUUAAU [JMF's solution 73] (Eterna round: R96, puzzle: Exclusion NG 3) | 37.5 | 40.8 | 31.4 | – | – | –
